Data set [1] concerns the target T1, T4 Dda-E94C/C109A/C136A/A360C helicase (UniProt P32270 SEQ:1-439, E94C/C109A/C136A/A360C).
T1 sequence: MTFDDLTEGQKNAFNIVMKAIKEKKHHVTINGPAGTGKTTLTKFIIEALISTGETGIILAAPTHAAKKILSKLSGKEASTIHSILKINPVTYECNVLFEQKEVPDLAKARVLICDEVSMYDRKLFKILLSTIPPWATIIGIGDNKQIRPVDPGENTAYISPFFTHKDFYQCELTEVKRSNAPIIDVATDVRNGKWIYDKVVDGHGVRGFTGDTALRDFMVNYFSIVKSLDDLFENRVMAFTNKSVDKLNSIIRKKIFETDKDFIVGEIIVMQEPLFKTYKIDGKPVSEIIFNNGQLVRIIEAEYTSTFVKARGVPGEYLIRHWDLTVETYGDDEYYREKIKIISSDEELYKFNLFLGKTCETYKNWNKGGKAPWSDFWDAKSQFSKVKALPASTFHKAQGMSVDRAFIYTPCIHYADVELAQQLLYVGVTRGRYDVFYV
The data set is described as follows: EMSA; native TBE PAGE; 50 mM HEPES, 100 mM KOAc pH 8, 1 mM EDTA, 100 uM TMAD; 2:1 and 1:1 complexes, single enzyme after KCl/ATP and SPRI. Particulars: tags: closed with TMAD; Y-adapter, partly double-stranded. The procedure:
T4 Dda—E94C/C109A/C136A/A360C (3 μM, SEQ ID NO: 24 with mutations E94C/C109A/C136A/A360C) and DNA Y-adapter (500 nM, SEQ ID NO: 26 was hybridised to DNA strand X=30 iSpC3 spacers attached at the 3′ end to the 5′ end SEQ ID NO: 27 which is attached at the 3′ end to 4 iSp18 spacers which are attached at the opposite end to the 5′ end of SEQ ID NO: 28) were mixed in buffer (50 mM HEPES, 100 mM KOAc (pH 8) and EDTA (1 mM) and TMAD (100 μM) were added and incubated for 60 minutes at room temperature. The mixture was then diluted 1:1 in KCl/ATP solution (500 mM KCl, 1 mM ATP final) and incubated at ambient temperature for 25 mins, this mixture was known as sample 3.
The resultant enzyme bound to DNA was then analysed using a TBE PAGE gel as described previously in Example 1 except the gel was run for 45 mins.

The target in data set [2] is T1, T4 Dda-E94C/C109A/C136A/A360C helicase. Put plainly: EMSA; native TBE PAGE, band C. The conditions noted are these: tags: closed with TMAD; Y-adapter, partly double-stranded. The procedure: Each sample run on the gel was 400 nM (5 μL). Lane 1 corresponded to a 100 bp ladder (the number of base pairs that the bands correspond to is shown along the side of the gel). Lane 2 corresponded to helicase leader complex shown in FIG. 12A, without the helicase bound. Lane 3 corresponded to the helicase leader complex shown in FIG. 12A with the helicase bound. Lane 4 corresponded to the polymerase strand complex shown in FIG. 12B without the polymerase bound. Lane 5 corresponded to the polymerase strand complex shown in FIG. 12B with the polymerase bound. Band A corresponded to SEQ ID NO: 43. Band B corresponded to DNA strand X=30 iSpC3 spacers attached at the 3′ end to the 5′ end SEQ ID NO: 27 which is attached at the 3′ end to 4 iSp18 spacers which are attached at the opposite end to the 5′ end of SEQ ID NO: 28. Band C corresponded to the helicase (T4 Dda—E94C/C109A/C136A/A360C) bound to DNA strand X. Band D corresponded to the polymerase strand complex without the enzyme bound (SEQ ID NO: 44 which was attached at its 3′ end to four iSpC3 spacers which were attached at the opposite end to the 5′ end of SEQ ID NO: 45). Band E corresponded to Phi29-A411C/Q560C bound to the polymerase strand complex.
The helicase-leader complex (diagram shown in FIG. 12 section A) was prepared as described in Example 2, except SEQ ID NO: 26 is replaced with SEQ ID NO: 43.

B1: DNA Y-adapter (Example 2) (mixed)
DNA 1: TTTTTTTTTTTTGGTTGTTTCTGTTGGTGCTGATATTGCGGCGTCTGCTTGGGTGTTTAACCT
DNA 2: GGTTAAACACCCAAGCAGACGCCGCAATATCAGCACCAACAGAAACAACCTTTGAGGCGAGCGGTCAA
modifications: 30 iSpC3 at 5' end of SEQ 27; 4 iSp18 between SEQ 27 and SEQ 28; 5' phosphate on SEQ 26
With B1, the binding result in data set [1] is on record as “binds”.

B2: helicase-leader Y-adapter (Example 7) (mixed)
DNA 1: TTTTTTTTTTTTGGTTGTTTCTGTTGGTGCTGATATTGCGGCGTCTGCTTGGGTGTTTAACCT
DNA 2: GCAATATCAGCACCAACAGAAACAACCTTTGAGGCGAGCGGTCAA
modifications: 30 iSpC3 at 5' end of SEQ 27; 4 iSp18 between SEQ 27 and SEQ 28
Consider B2, for which the binding result in data set [2] is on record as “binds”.

Source of the values: patent US20170107569, “METHOD FOR ATTACHING ONE OR MORE POLYNUCLEOTIDE BINDING PROTEINS TO A TARGET POLYNUCLEOTIDE” (Oxford Nanopore Technologies Ltd., published 2017).
